In a protein production outcome set (Wang et al. 2014) one finds protein production data, which are given here for 22 sequences.

A short description of the data set: label from the status in PepcDB records.

Regarding “MSLSGALKENSGKPSEVEYTHFKDLQALEMERGRLYETIVVTWDDSMVGNAAPIGVLCTGDDTVTLYLYQGTRTVENVLNNGRFTVNVTLDPLIFTDSTLGDLEEDMFSHYRDFLHLRGADAFFTAEVVSVKKLVKRDRFGESELHVVKARAGDVMRAESFRMALNRGIYAVIESLIAYTRAEFSDPLVLRERIAEMNRVARKVGGPREKEAMRRIIQALESKISEGHHHHHH”, the protein production entry is “not failed”.
On to “MSLSKILIAGCGDLGLELARRLTAQGHEVTGLRRSAQPMPAGVQTLIADVTRPDTLASIVHLRPEILVYCVAASEYSDEHYRLSYVEGLRNTLSALEGAPLQHVFFVSSTGVYGQEVEEWLDEDTPPIAKDFSGKRMLEAEALLAAYSSTILRFSGIYGPGRLRMIRQAQTPEQWPARNAWTNRIHRDDGAAFIAYLIQQRSHAVPERLYIVTDNQPLPVHDLLRWLADRQGIAYPAGATPPVQGNKKLSNARLLASGYQLIYPDYVSGYGALLAAMREGHHHHHH”, for which the protein production result is “not failed”.
With “MSLSKKIAVIGECMIELSEKGADVKRGFGGDTLNTSVYIARQVDPAALTVHYVTALGTDSFSQQMLDAWHGENVDTSLTQRMENRLPGLYYIETDSTGERTFYYWRNEAAAKFWLASEQSAAICEELANFDYLYLSGISLAILSPTSREKLLSLLRECRAKGGKVIFDNNYRPRLWASKEETQQVYQQMLECTDIAFLTLDDEDALWGQQPVEDVIARTHNAGVKEVVVKRGADSCLVSIAGEALVDVPAVKLPKEKVIDTTAAGDSFSAGYLAVRLTGGSAENAAKRGHLTASTVIQYRGAIIPREAMPAEGHHHHHH”, the protein production result is on record as “not failed”.
The same measure for “MSLSLIKVGLVGIGAQMQENLLPSLLQMQDIRIVAACDSDLERARRVHRFISDIPVLDNVPAMLNQVPLDAVVMAGPPQLHFEMGLLAMSKGVNVFVEKPPCATLEELETLIDAARRSDVVSGVGMNFKFARPVRQLREMTQVDEFGETLHIQLNHYANKPRAPLWGLDSTLRSFLLAQAIHTIDLAITFGDGELRRVQSSVQRHDDALIVRADMAFSSGATASLLAGTSFPYFEFDMKLVSSSSTLVELDNLWNITLHEPEHATRPTGAAKRWRGAWQPGPLDSGYERSGYHGELHQFFQAIREHRRFEADFASLLPTYRVIEEICSADAVAQGLQNAHSRIRTGIESLSEGHHHHHH”: “not failed”; for “MSLSNIETVPASIEMKPNPTITVFERSPDGGRGLARDMPVRWALEEVGRPYHVRRLSFEAMKEASHLAYQPFGQIPSYEQGDLILFESGAIVMHIAQHHSGLLPEDQLRRARTVAWMFAALNTIEPSILNFTTVWLFERNEPWHEARLARTKEQLLKRLDELSAWLGDREWLEGSFSAADILMICVLRRLESSGILKDYGNLLAYVERGKARPAFKRAFDAQLAVFTAASKNEGHHHHHH”: “not failed”; for “MSLSNRAGEILIVEDSPTQAEHLKHILEETGYQTEHVRNGREAVRFLSLTRPDLIISDVLMPEMDGYALCRWLKGQPDLRTIPVILLTILSDPRDVVRSLECGADDFITKPCKDVVLASHVKRLLSGVKRTEERYSRESITLAFGNEGHHHHHH”: “not failed”.
Take “MSLSQEMIKKWLDEEGFLRMEVPDENARFHYVVNYPEDHVIDIIQPAGKDDMILIACATSVSPEHQAGIRALSMEKRTEFIWKVRFTLNRFGVDFQLDHPENVLNSYLVTDEIFFDGLSKDRLISSIKNVFRAKLQVMWMIQERFGEERPEHDSMYVEGHHHHHH”: the protein production entry was “not failed”.
The same measure for “MSLSQRTLLLLSQDNAHYERLLKAAHLPHLRILRADNQSDAEKLIGEAHILMAEPARAKPLLAKANKLSWFQSTYAGVDVLLDARCRRDYQLTNVRGIFGPLMSEYVFGHLLSLMRQLPLYREQQKQRLWQSHPYQGLKGRTLLILGTGSIGQHIAHTGKHFGMKVLGVSRSGRERAGFDQVYQLPALNKMLAQADVIVSVLPATRETHHLFTASRFEHCKPGAILFNVGRGNAINEGDLLTALRTGKLGMAVLDVFEQEPLPADSPLWGQPNLIITPHNSAYSFPDDVAQIFVRNYIRFIDGQPLDGKIDFDKGYEGHHHHHH”: “not failed”.
Consider “MSLSSLLIIFSSSFMALFPVINPLGNGFVVNGFFADLDPSQRKTAIQKLTINFIMIGVGTLLIGHLFLLIFGLAIPVIQLGGGILICKTAIELLGDSNSSDKEGTSQNVDSFKWKSIEQKIFYPITFPISIGPGSISVIFTLMASASVKGKLLHTGINYLVIALVIICMAGILYVFLSQGQRIIQKLGPVGNQIINKLVAFFTFCIGIQISVTGISQIFHLNIL”, for which the protein production result was “failed”.
For “MSLSVPFEYTPIAQSVLDECEHLDTASLSDALDSLGIDGGLPGIASQVPGTRCVGIAFTVQYQPVDASEGFRGAANYIDQVPSGSVIVSSNSGRHDCTVWGDIMTHFALANGIKGTVIDGVARDIDTVINCNYPLFSRGRFMQSAKNRTQLKAVQVPLVIDGITIQPGDLMVCDGSGCVVVPQQLAAEVVLRARAVEQTERRIIEAISSGSTLEQARMTYRYDQPWLSEAEHGGTQEGHHHHHH” the value was “not failed”.
For the sequence “MSLSYVKEGLAVLEDGRLIYITPEEFRQLLQGDAILAVYSKTCPHCHRDWPQLIQASKEVDVPIVMFIWGSLIGERELSAARLEMNKAGVEGTPTLVFYKEGRIVDKLVGATPWSLKVEKAREIYGGEGHHHHHH”, the protein production result is “not failed”.
The same measure for “MSLTADTKRPLTLRDVSEASGVSEMTVSRVLRNRGDVSDATRARVLAAAKELGYVPNKIAGALASNRVNLVAVIIPSLSNMVFPEVLTGINQVLEDTELQPVVGVTDYLPEKEEKVLYEMLSWRPSGVIIAGLEHSEAARAMLDAAGIPVVEIMDSDGKPVDAMVGISHRRAGREMAQAILKAGYRRIGFMGTKMPLDYRARKRFEGFTEVLGKNGVEIEDREFYSGGSALAKGREMTQAMLERSPDLDFLYYSNDMIAAGGLLYLLEQGIDIPGQIGLAGFNNVELLQGLPRKLATMDACRLEIGRKAAEIIAKRLEDPEAEIETRITLEPKISYGDTLKREGHHHHHH”: “not failed”; for “MSLTDTKVKNAKPSEKVVKLTDGFGLYLLVHTNGSKYWQLGYRFEGKQKVFSIGVYPAVSLANARQRRDEAKKLLAAGVDPSAKKRADNKSVQEKRNNTRAFKTVAKSWFATKTTWSEDYQRSVWTRLETYLFPDIGNKDIAELDTGDLLVPIKKIEKLGYLEIAMRVKQYATAIMRYAVQQKMIRFNPAYDLEGAVQKPQTEHRPAIELEEIPTLLERIEGYKGRSRLTQLAIKLNLLIFIRSSELRFARWSEIDFKSGLWVIPEQREAIKGIKHSDRGAKMRRKHYVPLCEQALVILGELKDLTYDVNGDDGFILTGCYDAMKPMSENTINKALRKMGYDTKTDLCGHGFRTLACSALIESGIWPEDVVELQMSHMEKNNVRAAYTHKAKHLEQRRLMLQWWADFLDANGSGMVRPFEFAQGATQY”: “failed”.
For “MSLTEKFRPTLKDVARQAGVSIATASRALADNPAVAASTRERIQQLASDLGYRANAQARALRSSRSNTIGVIVPSLINHYFAAMVTEIQSTASKAGLATIITNSNEDATTMSGSLEFLTSHGVDGIICVPNEECANQLEDLQKQGMPVVLVDRELPGDSTIPTATSNPQPGIAAAVELLAHNNALPIGYLSGPMDTSTGRERLEDFKAACANSKIGEQLVFLGGYEQSVGFEGATKLLDQGAKTLFAGDSMMTIGVIEACHKAGLVIGKDVSVIGFDTHPLFALQPHPLTVIDQNVEQLAQRAVSILTELIAGTVPSVTKTTIPTALIHRESIINSTLRKEGHHHHHH” the value was “not failed”; for “MSLTFSILAHDPETGAIGGAAATGSLCVGGWVLRGDLNAGMSASQGAAPSTFWGEEVLQHLRDGSHPEDAVNHVTSQDSGRAYRQLAAMDLLGNAAAFTGSENQDIKGSVTFASGIASGNMLGDNSVLGAMTEAFVASDLTFERRLLAALIAAEGAGSDFRGLLSAAMLVLHPDRPPVTLRIDYHPDNPIGALEQLYQKATTGDYADWARQVPVLSDKERILDEGHHHHHH”, “not failed”.
The same measure for “MSLTIGVIGKSVHPYWSQVEQGVKAAGKALGVDTKFFVPQKEDINAQLQMLESFIAEGVNGIAIAPSDPTAVIPTIKKALEMGIPVVTLDTDSPDSGRYVYIGTDNYQAGYTAGLIMKELLGGKGKVVIGTGSLTAMNSLQRIQGFKDAIKDSEIEIVDILNDEEDGARAVSLAEAALNAHPDLDAFFGVYAYNGPAQALVVKNAGKVGKVKIVCFDTTPDILQYVKEGVIQATMGQRPYMMGYLSVTVLYLMNKIGVQNTLMMLPKVKVDGKVDYVIDTGVDVVTPENLDEYLKKMEELGIPIKEGHHHHHH”: “not failed”; for “MSLTLLKGRRKVDTIKVGILGYGLSGSVFHGPLLDVLDEYQISKIMTSRTEEVKRDFPDAEVVHELEEITNDPAIELVIVTTPSGLHYEHTMACIQAGKHVVMEKPMTATAEEGETLKRAADEKGVLLSVYHNRRWDNDFLTIKKLISEGSLEDINTYQVSYNRYRPEVQARWREKEGTATGTLYDLGSHIIDQTLHLFGMPKAVTANVMAQRENAETVDYFHLTLDYGKLQAILYGGSIVPANGPRYQIHGKDSSFIKYGIDGQEDALRAGRKPEDDSWGADVPEFYGKLTTIRGSDKKTETIPSVNGSYLTYYRKIAESIREGAALPVTAEEGINVIRIIEAAMESSKEKRTIMLEHEGHHHHHH”: “not failed”; for “MSLTPWLSIVGISEEGWLALTPIAQQCILQADILVGSDRHFDLLPSLPGAEQWRWGSPFSATITQILERRGQSICILASGDPMCYGVGSLLAQRLPLTELQILPAPSAFSLACSRLGWALPEVETLSLCGRDPALLNALLYPGAKILALSADRSTPATIAEQLCQQGWGSSRLTVLEHLGGPKERKISEIAEHWSQPTIASLNTVAIECHARDRDLIVPPRLTGLPDAAYHHDGQLTKREVRAITLAALAPLPGQLLWDVGAGCGSIGIEWMRSDRRCRAIAIEQHPQRLQIITQNAIALGVPNLQVVAGSAPATLSGLPQPDAIFIGGGVTAPGVLDQCWQALPMGGRLVVNAVTLESEQVVLAGQQRWGGDLIRVAVQRAEPIGRFLGWKSLAPITQWTVKKTALEHHHHHH”: “not failed”.
On to “MSLTRNRTVALAIIDMQNDFVLPGAPACVEGAMGTVPVIAGLLAKARAEGWMVLHVVRAHRADGSDAEKSREHLFLEGGGLCVAGTPGAEIVAGLEPASGETVLVKTRFSAFMGTECDMLLRRRGVDTLLVSGTQYPNCIRGTAVDAFALDYDVVVVTDACSARTPGVAESNINDMRAMGITCVPLTALDDVLARREGHHHHHH”, for which the protein production entry was “not failed”.
Take “MSLTRPLRADAARNRARVLEVAYDTFAAEGLGVPMDEIARRAGVGAGTVYRHFPTKQALVVAVAEDRVRRIVDHARTLLAAEGPGEALFVFMRDMVRSAAADYGLVDALVGYGLDLEVAAPGAEAAFLATLGELLAAAQRAGTVRADVDVAVIKALLVVCKVPQVYDGEVSERVVRVIEDGLRVRSSVEGHHHHHH”: the protein production result is recorded as “not failed”.
The same measure for “MSLTVQDLHFKNKVNFIGGQYVPSNESDTIDILSPSTGKVIGEIPAGCKADAENALEVAQAAQKAWAKLTARTRQNMLRTFANKIRENKHILAPMLVAEQGKLLSVAEMEVDVTATFIDYGCDNALTIEGDILPSDNQDEKIYIHKVPRGVVVGITAWNFPLALAGRKIGPALITGNTMVLKPTQETPLATTELGRIAKEAGLPDGVLNVINGTGSVVGQTLCESPITKMITMTGSTVAGKQIYKTSAEYMTPVMLELGGKAPMVVMDDADLDKAAEDALWGRFANCGQVCTCVERLYVHASVYDEFMAKFLPLVKGLKVGDPMDADSQMGPKCNQREIDNIDHIVHEAIKQGATVATGGKTATVEGFEGGCWYEPTVLVDVKQDNIVVHEETFGPILPIVKVSSMEQAIEFCNDSIYGLSAYVHTQSFANINQAISDLEVGEVYINRGMGEQHQGFHNGWKQSGFGGEDGKFGLEQYLEKKTVYINEAEGHHHHHH”: “not failed”.
For “MSLVEATLEVIGGKWKCVILCHLTHGKKRTSELKRLMPNITQKMLTQQLRELEADGVINRIVYNQVPPKVEYELSEYGRSLEGILDMLCAWGANHINRVEGHHHHHH” the value was “not failed”.
